Test results from paper PMC1914068.

Biological target: LexA-TAP-Vpr (yeast two-hybrid bait) (HIV-1) (UniProt P05928)
Test: two-hybrid; LexA baits (pEG202) and B42 preys (pJG4-5) in S. cerevisiae EGY48; β-galactosidase activity by the o-nitrophenyl-β-D-galactopyranoside method

## Vpr as yeast two-hybrid fusion (LexA-Vpr bait and B42-Vpr prey) (from UniProt P05928 1-96) (natural protein)
  fold weaker than dimerization of wild-type Vpr (β-galactosidase activity): 3 fold
